Experimental data taken from paper PMC2865522, “Crystal Structure of HIV-1 gp41 Including Both Fusion Peptide and Membrane Proximal External Regions” (PLoS Pathogens, 2010).

Molecular target: T1, gp41 HR1 fragment, Ala541 to Leu581 (chain of gp41_(541–665)) (HIV-1 HXB2 group M subtype B, UniProt P04578 541-581)
T1 construct: HIV-1 HXB2 (group M subtype B) envelope glycoprotein, gp41 subunit, residues Ala541 to Leu581 (heptad repeat 1); also called core fragment HR1; source: E. coli Rosetta (DE3), fusion protein; pellets of HR1 and HR2 expressing bacteria mixed before lysis; complex purified (amylose, TEV digestion, Ni2+, anion exchange, SEC); not shown: Flag-tag (DDDDK), N-terminal, kept
T1 sequence (P04578 541-581): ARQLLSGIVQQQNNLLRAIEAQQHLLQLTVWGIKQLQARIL
Assay: SEC; purified complexes on a Superdex 200 (S200) column in buffer A (0.02 M Tris pH 8.0, 0.1 M NaCl); SDS-PAGE of the peak; the complexes were assembled by mixing bacteria before lysis and co-purified
Details: both partners purified

B1: gp41 HR2 fragment, Met628 to Lys665 as printed (chain of gp41_(541–665)) (domain or fragment)
chain: MEWDREINNYTSLIHSLIEESQNQQEKNEQELLELDK
notes: HIV-1 HXB2 (group M subtype B) envelope glycoprotein, gp41 subunit, heptad repeat 2; also called core fragment HR2; source: E. coli Rosetta (DE3), fusion protein; pellets of HR1 and HR2 expressing bacteria mixed before lysis (HR2 in excess); complex purified (amylose, TEV digestion, Ni2+, anion exchange, SEC); not shown: Flag-tag (DDDDK), N-terminal, kept
binding result: binds
